Experimental data as given in patent publication US20210388087A1 (Chugai, published 2021).

Biological target: T1, Human CD137 ECD (human)
T1 construct: entry includes C-terminal His-tag and biotin acceptor peptide; also called human CD137 extracellular domain; 4-1BB
Test: Biacore SPR, vs parent H183/L072

T1 sequence (chain, as listed by the source limits assumed): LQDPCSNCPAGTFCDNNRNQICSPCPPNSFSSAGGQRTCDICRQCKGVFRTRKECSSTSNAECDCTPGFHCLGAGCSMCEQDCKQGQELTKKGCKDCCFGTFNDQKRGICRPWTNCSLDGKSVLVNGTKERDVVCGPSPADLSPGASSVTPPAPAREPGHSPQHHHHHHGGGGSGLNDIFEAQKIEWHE

| Binder | fold change of affinity [fold] |
| --- | --- |
| H183/L072 VL N28K (antibody, name in Kabat numbering, V domains shown, Dual-Ig) VH: QVQLVESGGGLVQPGRSLRLSCAASGFTFSNAWMHWVRQAPGKGLEWVAQIKDKGNAYAAYYAPSVKGRFTISRDDSKNSIYLQMNSLKTEDTAVYYCHYVHYASASTVLPAFGVDAWGQGTTVTVSS VL: DIVMTQSPLSLPVTPGEPASISCQASQELVHMKRNTYLHWYQQKPGQAPRLLIYKVSNRFPGVPDRFSGSGSGTDFTLKISRVEAEDVGVYYCAQGTSVPFTFGQGTKLEIK | 0.3 |
| H183/L072 VL N28Q (antibody, name in Kabat numbering, V domains shown, Dual-Ig) VH: QVQLVESGGGLVQPGRSLRLSCAASGFTFSNAWMHWVRQAPGKGLEWVAQIKDKGNAYAAYYAPSVKGRFTISRDDSKNSIYLQMNSLKTEDTAVYYCHYVHYASASTVLPAFGVDAWGQGTTVTVSS VL: DIVMTQSPLSLPVTPGEPASISCQASQELVHMQRNTYLHWYQQKPGQAPRLLIYKVSNRFPGVPDRFSGSGSGTDFTLKISRVEAEDVGVYYCAQGTSVPFTFGQGTKLEIK | 0.4 |
| H183/L072 VL N28R (antibody, name in Kabat numbering, V domains shown, Dual-Ig) VH: QVQLVESGGGLVQPGRSLRLSCAASGFTFSNAWMHWVRQAPGKGLEWVAQIKDKGNAYAAYYAPSVKGRFTISRDDSKNSIYLQMNSLKTEDTAVYYCHYVHYASASTVLPAFGVDAWGQGTTVTVSS VL: DIVMTQSPLSLPVTPGEPASISCQASQELVHMRRNTYLHWYQQKPGQAPRLLIYKVSNRFPGVPDRFSGSGSGTDFTLKISRVEAEDVGVYYCAQGTSVPFTFGQGTKLEIK | 0.4 |
| H183/L072 VL N28M (antibody, name in Kabat numbering, V domains shown, Dual-Ig) VH: QVQLVESGGGLVQPGRSLRLSCAASGFTFSNAWMHWVRQAPGKGLEWVAQIKDKGNAYAAYYAPSVKGRFTISRDDSKNSIYLQMNSLKTEDTAVYYCHYVHYASASTVLPAFGVDAWGQGTTVTVSS VL: DIVMTQSPLSLPVTPGEPASISCQASQELVHMMRNTYLHWYQQKPGQAPRLLIYKVSNRFPGVPDRFSGSGSGTDFTLKISRVEAEDVGVYYCAQGTSVPFTFGQGTKLEIK | 0.4 |
| H183/L072 VL N28S (antibody, name in Kabat numbering, V domains shown, Dual-Ig) VH: QVQLVESGGGLVQPGRSLRLSCAASGFTFSNAWMHWVRQAPGKGLEWVAQIKDKGNAYAAYYAPSVKGRFTISRDDSKNSIYLQMNSLKTEDTAVYYCHYVHYASASTVLPAFGVDAWGQGTTVTVSS VL: DIVMTQSPLSLPVTPGEPASISCQASQELVHMSRNTYLHWYQQKPGQAPRLLIYKVSNRFPGVPDRFSGSGSGTDFTLKISRVEAEDVGVYYCAQGTSVPFTFGQGTKLEIK | 0.5 |
| H183/L072 VL N28P (antibody, name in Kabat numbering, V domains shown, Dual-Ig) VH: QVQLVESGGGLVQPGRSLRLSCAASGFTFSNAWMHWVRQAPGKGLEWVAQIKDKGNAYAAYYAPSVKGRFTISRDDSKNSIYLQMNSLKTEDTAVYYCHYVHYASASTVLPAFGVDAWGQGTTVTVSS VL: DIVMTQSPLSLPVTPGEPASISCQASQELVHMPRNTYLHWYQQKPGQAPRLLIYKVSNRFPGVPDRFSGSGSGTDFTLKISRVEAEDVGVYYCAQGTSVPFTFGQGTKLEIK | 0.4 |
| H183/L072 VL N28L (antibody, name in Kabat numbering, V domains shown, Dual-Ig) VH: QVQLVESGGGLVQPGRSLRLSCAASGFTFSNAWMHWVRQAPGKGLEWVAQIKDKGNAYAAYYAPSVKGRFTISRDDSKNSIYLQMNSLKTEDTAVYYCHYVHYASASTVLPAFGVDAWGQGTTVTVSS VL: DIVMTQSPLSLPVTPGEPASISCQASQELVHMLRNTYLHWYQQKPGQAPRLLIYKVSNRFPGVPDRFSGSGSGTDFTLKISRVEAEDVGVYYCAQGTSVPFTFGQGTKLEIK | 0.3 |

More lines, now with the values ahead:

| fold change of affinity [fold] | Binder |
| --- | --- |
| 0.7 | H183/L072 VL N30A (antibody, name in Kabat numbering, V domains shown, Dual-Ig) VH: QVQLVESGGGLVQPGRSLRLSCAASGFTFSNAWMHWVRQAPGKGLEWVAQIKDKGNAYAAYYAPSVKGRFTISRDDSKNSIYLQMNSLKTEDTAVYYCHYVHYASASTVLPAFGVDAWGQGTTVTVSS VL: DIVMTQSPLSLPVTPGEPASISCQASQELVHMNRATYLHWYQQKPGQAPRLLIYKVSNRFPGVPDRFSGSGSGTDFTLKISRVEAEDVGVYYCAQGTSVPFTFGQGTKLEIK |
| 0.5 | H183/L072 VL N28T (antibody, name in Kabat numbering, V domains shown, Dual-Ig) VH: QVQLVESGGGLVQPGRSLRLSCAASGFTFSNAWMHWVRQAPGKGLEWVAQIKDKGNAYAAYYAPSVKGRFTISRDDSKNSIYLQMNSLKTEDTAVYYCHYVHYASASTVLPAFGVDAWGQGTTVTVSS VL: DIVMTQSPLSLPVTPGEPASISCQASQELVHMTRNTYLHWYQQKPGQAPRLLIYKVSNRFPGVPDRFSGSGSGTDFTLKISRVEAEDVGVYYCAQGTSVPFTFGQGTKLEIK |
| 0.3 | H183/L072 VL N28V (antibody, name in Kabat numbering, V domains shown, Dual-Ig) VH: QVQLVESGGGLVQPGRSLRLSCAASGFTFSNAWMHWVRQAPGKGLEWVAQIKDKGNAYAAYYAPSVKGRFTISRDDSKNSIYLQMNSLKTEDTAVYYCHYVHYASASTVLPAFGVDAWGQGTTVTVSS VL: DIVMTQSPLSLPVTPGEPASISCQASQELVHMVRNTYLHWYQQKPGQAPRLLIYKVSNRFPGVPDRFSGSGSGTDFTLKISRVEAEDVGVYYCAQGTSVPFTFGQGTKLEIK |
| 0.4 | H183/L072 VL N28Y (antibody, name in Kabat numbering, V domains shown, Dual-Ig) VH: QVQLVESGGGLVQPGRSLRLSCAASGFTFSNAWMHWVRQAPGKGLEWVAQIKDKGNAYAAYYAPSVKGRFTISRDDSKNSIYLQMNSLKTEDTAVYYCHYVHYASASTVLPAFGVDAWGQGTTVTVSS VL: DIVMTQSPLSLPVTPGEPASISCQASQELVHMYRNTYLHWYQQKPGQAPRLLIYKVSNRFPGVPDRFSGSGSGTDFTLKISRVEAEDVGVYYCAQGTSVPFTFGQGTKLEIK |
| 0.3 | H183/L072 VL N28W (antibody, name in Kabat numbering, V domains shown, Dual-Ig) VH: QVQLVESGGGLVQPGRSLRLSCAASGFTFSNAWMHWVRQAPGKGLEWVAQIKDKGNAYAAYYAPSVKGRFTISRDDSKNSIYLQMNSLKTEDTAVYYCHYVHYASASTVLPAFGVDAWGQGTTVTVSS VL: DIVMTQSPLSLPVTPGEPASISCQASQELVHMWRNTYLHWYQQKPGQAPRLLIYKVSNRFPGVPDRFSGSGSGTDFTLKISRVEAEDVGVYYCAQGTSVPFTFGQGTKLEIK |
| 0.9 | H183/L072 VL N30F (antibody, name in Kabat numbering, V domains shown, Dual-Ig) VH: QVQLVESGGGLVQPGRSLRLSCAASGFTFSNAWMHWVRQAPGKGLEWVAQIKDKGNAYAAYYAPSVKGRFTISRDDSKNSIYLQMNSLKTEDTAVYYCHYVHYASASTVLPAFGVDAWGQGTTVTVSS VL: DIVMTQSPLSLPVTPGEPASISCQASQELVHMNRFTYLHWYQQKPGQAPRLLIYKVSNRFPGVPDRFSGSGSGTDFTLKISRVEAEDVGVYYCAQGTSVPFTFGQGTKLEIK |
| 0.1 | H183/L072 VL N30D (antibody, name in Kabat numbering, V domains shown, Dual-Ig) VH: QVQLVESGGGLVQPGRSLRLSCAASGFTFSNAWMHWVRQAPGKGLEWVAQIKDKGNAYAAYYAPSVKGRFTISRDDSKNSIYLQMNSLKTEDTAVYYCHYVHYASASTVLPAFGVDAWGQGTTVTVSS VL: DIVMTQSPLSLPVTPGEPASISCQASQELVHMNRDTYLHWYQQKPGQAPRLLIYKVSNRFPGVPDRFSGSGSGTDFTLKISRVEAEDVGVYYCAQGTSVPFTFGQGTKLEIK |
| 0.1 | H183/L072 VL N30E (antibody, name in Kabat numbering, V domains shown, Dual-Ig) VH: QVQLVESGGGLVQPGRSLRLSCAASGFTFSNAWMHWVRQAPGKGLEWVAQIKDKGNAYAAYYAPSVKGRFTISRDDSKNSIYLQMNSLKTEDTAVYYCHYVHYASASTVLPAFGVDAWGQGTTVTVSS VL: DIVMTQSPLSLPVTPGEPASISCQASQELVHMNRETYLHWYQQKPGQAPRLLIYKVSNRFPGVPDRFSGSGSGTDFTLKISRVEAEDVGVYYCAQGTSVPFTFGQGTKLEIK |
